Consider four molecules from patent publication EP2083016A1 (U.S. Medical Research Institute of Infectious Diseases, dated 2009).

Test [1] concerns the target T1, HLA-DR1 (DR1 alpha/beta; DRA and DRB1*0101) on the cell surface (human). Nature of the test: flow cytometry on HLA-DR-bearing cells, FITC rabbit anti-TSST-1.
Test [2] has as its target T1, HLA-DR1 (DR1 alpha/beta; DRA and …). Nature of the test: flow cytometry on human MHC class II expressing cells. (In flow cytometry, cells or beads pass a laser one at a time.)
Test [3] has the same target. Description: flow cytometry; toxin on cells bearing HLA-DR1.
For test [4] the target is unchanged. Nature of the test: flow cytometry on HLA-DR-bearing cells, FITC rabbit anti-SpeA.

B1: toxic shock syndrome toxin-1 (TSST-1), wild type (ligand)
chain: STNDNIKDLLDWYSSGSDTFTNSEVLDNSLGSMRIKNTDGSISLIIFPSPYYSPAFTKGEKVDLNTKRTKKSQHTSEGTYIHFQISGVTNTEKLPTPIELPLKVKVHGKDSPLKYGPKFDKKQLAISTLDFEIRHQLTQIHGLYRSSDKTGGYWKITMNDGSTYQSDLSKKFEYNTEKPPINIDEIKTIEAEIN
Take B1: the binding result in test [1] is reported as “binds”.

B2: staphylococcal enterotoxin A (SEA), wild type (ligand)
chain: SEKSEEINEKDLRKKSELQGTALGNLKQIYYYNEKAKTENKESHDQFLQHTILFKGFFTDHSWYNDLLVDFDSKDIVDKYKGKKVDLYGAYYGYQCAGGTPNKTACMYGGVTLHDNNRLTEEKKVPINLWLDGKQNTVPLETVKTNKKNVTVQELDLQARRYLQEKYNLYNSDVFDGKVQRGLIVFHTSTEPSVNYDLFGAQGQYSNTLLRIYRDNKTINSENMHIDIYLYTS
B2: the binding result in test [2] is reported as “binds”.

B3: staphylococcal enterotoxin D (SED) (ligand)
chain: NENIDSVKEKELHKKSELSSTALNNMKHSYADKNPIIGENKSTGDQFLENTLLYKKFFTDLINFEDLLINFNSKEMAQHFKSKNVDVYPIRYSINCYGGEIDRTACTYGGVTPHEGNKLKERKKIPINLWINGVQKEVSLDKVQTDKKNVTVQELDAQARRYLQKDLKLYNNDTLGGKIQRGKIEFDSSDGSKVSYDLFDVKGDFPEKQLRIYSDNKTLSTEHLHIDIYLYEK
As for B3, the binding result in test [3] was “binds”.

B4: SpeA mutant L42A (ligand)
chain: QQDPDPSQLHRSSLVKNLQNIYFLYEGDPVTHENVKSVDQLASHDLIYNVSGPNYDKLKTELKNQEMATLFKDKNVDIYGVEYYHLCYLCENAERSACIYGGVTNHEGNHLEIPKKIVVKVSIDGIQSLSFDIETNKKMVTAQELDYKVRKYLTDNKQLYTNGPSKYETGYIKFIPKNKESFWFDFFPEPEFTQSKYLMIYKDNETLDSNTSQIEVYLTTK
Turning to B4, in test [4], the binding result is “binds”.
